Assay results taken from PMC4985284, “Monochromatic multicomponent fluorescence sedimentation velocity for the study of high-affinity protein interactions” (eLife, 2016).
Several values for one entry are separate records, joined by “and”; a condition that tells them apart may be missing. Equal entries are not always repeated. Where two headings read alike, the source gives them in different places.

B1: Dylight488-labeled GluA2-ATD (amino-terminal domain of the AMPA receptor GluA2) (domain or fragment, UniProt P19491 22-404, looked up)
chain: VSSNSIQIGGLFPRGADQEYSAFRVGMVQFSTSEFRLTPHIDNLEVANSFAVTNAFCSQFSRGVYAIFGFYDKKSVNTITSFCGTLHVSFITPSFPTDGTHPFVIQMRPDLKGALLSLIEYYQWDKFAYLYDSDRGLSTLQAVLDSAAEKKWQVTAINVGNINNDKKDETYRSLFQDLELKKERRVILDCERDKVNDIVDQVITIGKHVKGYHYIIANLGFTDGDLLKIQFGGANVSGFQIVDYDDSLVSKFIERWSTLEEKEYPGAHTATIKYTSALTYDAVQVMTEAFRNLRKQRIEISRRGNAGDCLANPAVPWGQGVEIERALKQVQVEGLSGNIKFDQNGKRINYTINIMELKTNGPRKIGYWSEVDKMVVTLTELPS
modifications: Dylight488 (N-hydroxysuccinimide ester-activated dye); native complex glycosylation
notes: signal peptide in the construct; secreted; Cut with thrombin after IMAC; also called DL488-GluA2; source: HEK293T, transient transfection, secreted, purified (HiTrap NTA, thrombin, HiTrap Q); labelled with Dylight488 and separated from free dye on Superdex 75; not shown: His8, C-terminal, cleaved
B2: fusion protein of GluA3-ATD and rsEGFP2 (rsEGFP2-GluA3) (domain or fragment, UniProt P19492 23-408, looked up)
chain: GFPNTISIGGLFMRNTVQEHSAFRFAVQLYNTNQNTTEKPFHLNYHVDHLDSSNSFSVTNAFCSQFSRGVYAIFGFYDQMSMNTLTSFCGALHTSFVTPSFPTDADVQFVIQMRPALKGAILSLLSYYKWEKFVYLYDTERGFSVLQAIMEAAVQNNWQVTARSVGNIKDVQEFRRIIEEMDRRQEKRYLIDCEVERINTILEQVVILGKHSRGYHYMLANLGFTDILLERVMHGGANITGFQIVNNENPMVQQFIQRWVRLDEREFPEAKNAPLKYTSALTHDAILVIAEAFRYLRRQRVDVSRRGSAGDCLANPAVPWSQGIDIERALKMVQVQGMTGNIQFDTYGRRTNYTIDVYEMKVSGSRKAGYWNEYERFVPFSDQQIS
modifications: native complex glycosylation
notes: GluA3 AMPA receptor amino-terminal domain, residues Gly23-Ser408; The fluorescent protein is the detection tag and is not written as a part; it is joined by SGSG (before) and SGS (after); The methods call the fluorescent protein rsEGFP, the results rsEGFP2; Cut with thrombin; also called rsEGFP-GluA3 ATD fusion construct; source: HEK293T, transient transfection, secreted, purified (HiTrap NTA, …)

What was measured:
[1] = molecular target: GluA2 ATD (Rattus norvegicus) (UniProt P19491); conditions: cited from earlier work
[2] = molecular target: GluA3 ATD (Rattus norvegicus) (UniProt P19492); conditions: cited from earlier work
[3] = molecular target: GluA2 ATD (Rattus norvegicus) (UniProt P19491); conditions: cited from earlier work; remark: listed apart in the source
[4] = molecular target: GluA3 ATD (Rattus norvegicus) (UniProt P19492); conditions: cited from earlier work; remark: listed apart in the source
[5] = molecular target: the molecule itself; assay: AUC; fluorescence-detected sedimentation velocity (FDS-SV), dilution series of DL488-GluA2 from 0.2 nM to 200 nM, 50,000 rpm, 20°C, 488 nm excitation; c(s) and sw isotherm with monomer-dimer model; dimer to monomers; 0.1 mg/ml unlabeled BSA added
[6] = molecular target: B2; assay: AUC; FRAP-like FDS-SV, equimolar mixtures of rsEGFP2-GluA3 and DL488-GluA2, 20 min stationary 488 nm exposure at 6.5 cm before scanning, 50,000 rpm, 20°C; component sw isotherm with competitive homo- and hetero-dimerization model; conditions: both partners purified
[7] = molecular target: B2; assay: AUC; MCMC FDS-SV, equimolar dilution series of DL488-GluA2 and rsEGFP2-GluA3 from 0.1-30 nM, 13 mW excitation beam, 50,000 rpm, 20°C; global fit of component sw isotherms with a linked homo- and hetero-dimerization model, K_(d,22) fixed at 27.1 nM; conditions: both partners purified
[8] = molecular target: B1; assay: as above; conditions: both partners purified

Molecule: GluA2 ATD (from UniProt P19491)
Kd [1]: 1.8 nM
Kd [2]: 1.3 nM
Kd [3]: 20.5 nM

Molecule: GluA3 ATD (from UniProt P19492)
Kd [4]: 5.6 µM

Molecule: B1
Kd [5]: 24 nM and 27.1 nM
stoichiometry N [5]: 2
Kd [6]: 0.68 nM
Kd [7]: 0.32 nM

Molecule: B2
stoichiometry N [8]: 1
